From PMC11059244

Settings: phosphorylation at S405

| Substance | degradation_or_half_life | other | expression_or_secretion |
| --- | --- | --- | --- |
| YAP: S405A | decreases | increases |  |
| YAP: S405D phosphomimetic |  | decreases |  |
| YAP: ponatinib (MAP3K3 inhibitor) |  |  | decreases |
